Assay results as given in patent US20220119534A1 (DRAGONFLY THERAPEUTICS, published 2022).

What was measured:
Human CLEC12A-His [1] = molecular target: T1, Human CLEC12A-His (human, UniProt Q5QGZ9 65-265); assay: SPR Biacore 8K 37 C; TriNKET captured on anti-hFc chip, hCLEC12A-His as analyte; 1:1 fit; after 4 wks 2-8 C in CST pH 7.0, n=2
T1 construct: Recombinant soluble protein made in house (Dragonfly Tx); The hCLEC12A spot of the HuProt array is written under this molecule as well; also called hCLEC12A-His; hCLEC12A; not shown: His tag
T1 sequence: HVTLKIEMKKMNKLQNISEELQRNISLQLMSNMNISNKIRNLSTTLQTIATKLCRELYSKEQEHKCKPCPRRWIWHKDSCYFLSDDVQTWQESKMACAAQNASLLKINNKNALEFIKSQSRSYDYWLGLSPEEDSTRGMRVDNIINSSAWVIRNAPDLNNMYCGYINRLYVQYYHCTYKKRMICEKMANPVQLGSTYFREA

Human CLEC12A-His [2] = molecular target: T1, Human CLEC12A-His; assay: SPR Biacore 8K 37 C; TriNKET captured on anti-hFc chip, hCLEC12A-His as analyte; 1:1 fit; control sample, n=2
Description: Briefly, human Fc specific antibodies were covalently immobilized at a density ˜8000-10000 resonance units (RU) on carboxy methyl dextran matrix of a CM5 biosensor chip via amine-coupling chemistry to create an anti-hFc IgG chip. […] Association was monitored for 300 seconds and dissociation was monitored for 600 seconds. Surfaces were regenerated between cycles with three pulses of 10 mM glycine-HCl, pH 1.7 injected for 20 seconds at 100 μL/min. HBS-EP+ (1×) with 0.1 mg/mL BSA buffer was used throughout the experiment. Data were analyzed using Biacore 8K Insight evaluation software (GE Healthcare). The kinetic rate constants and overall affinity were obtained using 1:1 kinetic fit binding model (FIGS. 71A-71B).

mFc-hNKG2D = molecular target: T2, mFc-hNKG2D (human, UniProt P26718 73-216); assay: SPR Biacore 8K 37 C; mFc-hNKG2D captured on anti-mFc chip, TriNKET as analyte; steady state fit; pH 8.0 control
T2 construct: extracellular domain; Made in house (Dragonfly Tx); the order of tag and ECD follows the name mFc-hNKG2D; also called mFc-tagged human NKG2D; not shown: mouse Fc tag
T2 sequence (looked up): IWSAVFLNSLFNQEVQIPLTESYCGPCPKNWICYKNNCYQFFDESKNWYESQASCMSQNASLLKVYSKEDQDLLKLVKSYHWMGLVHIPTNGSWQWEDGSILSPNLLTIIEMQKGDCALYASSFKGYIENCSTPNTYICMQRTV

[3] = molecular target: T3, Human CD16a V158 (FcγRIIIa V158) (human, UniProt P08637 17-208, biotinylated (site not stated)); assay: SPR; biotinylated CD16a V158 captured on SA chip, TriNKET as analyte; 1:1 kinetic fit; after 4 wks 40 C in CST pH 7.0, n=3
T3 construct: V158 is the allele name in mature numbering; also called hCD16aV; hCD16a V158

Human CLEC12A-His [4] = molecular target: T1, Human CLEC12A-His; assay: SPR Biacore 8K 37 C; TriNKET captured on anti-hFc chip, hCLEC12A-His as analyte; 1:1 fit; after 2 wks 40 C at pH 5.0, n=2

T3 sequence (P08637 17-208 F176V limits assumed): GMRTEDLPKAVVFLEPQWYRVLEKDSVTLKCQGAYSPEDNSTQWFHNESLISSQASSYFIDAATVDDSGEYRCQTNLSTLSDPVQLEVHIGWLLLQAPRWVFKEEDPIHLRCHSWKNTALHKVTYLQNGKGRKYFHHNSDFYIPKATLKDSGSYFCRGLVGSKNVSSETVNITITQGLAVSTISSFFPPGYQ

B1: F3'-1602 TriNKET (bispecific antibody, human IgG1, kappa)
chain: QLQLQESGPGLVKPSETLSLTCTVSGFSLTNYGLHWIRQPPGKCLEWIGVIWSGGKTDYNPSLKSRVTISKDTSKNQFSLKLSSVQAADTAVYYCAKYDYDDSLDYWGQGTLVTVSSGGGGSGGGGSGGGGSGGGGSDIQMTQSPSSLSASVGDRVTITCHASQNINFWLSWYQQKPGKAPKLLIYEASNLHTGVPSRFSGSGSGTRFTLTISSLQPEDIATYYCQQSHSYPLTFGCGTKLEIKGSDKTHTCPPCPAPELLGGPSVFLFPPKPKDTLMISRTPEVTCVVVDVSHEDPEVKFNWYVDGVEVHNAKTKPREEQYNSTYRVVSVLTVLHQDWLNGKEYKCKVSNKALPAPIEKTISKAKGQPREPRVYTLPPCRDELTKNQVSLTCLVKGFYPSDIAVEWESNGQPENNYKTTPPVLVSDGSFTLYSKLTVDKSRWQQGNVFSCSVMHEALHNHYTQKSLSLSPG
heavy: EVQLVESGGGLVKPGGSLRLSCAASGFTFSSYSMNWVRQAPGKGLEWVSSISSSSSYIYYADSVKGRFTISRDNAKNSLYLQMNSLRAEDTAVYYCARGAPIGAAAGWFDPWGQGTLVTVSSASTKGPSVFPLAPSSKSTSGGTAALGCLVKDYFPEPVTVSWNSGALTSGVHTFPAVLQSSGLYSLSSVVTVPSSSLGTQTYICNVNHKPSNTKVDKKVEPKSCDKTHTCPPCPAPELLGGPSVFLFPPKPKDTLMISRTPEVTCVVVDVSHEDPEVKFNWYVDGVEVHNAKTKPREEQYNSTYRVVSVLTVLHQDWLNGKEYKCKVSNKALPAPIEKTISKAKGQPREPQVCTLPPSRDELTENQVSLTCLVKGFYPSDIAVEWESNGQPENNYKTTPPVLDSDGSFFLYSWLTVDKSRWQQGNVFSCSVMHEALHNHYTQKSLSLSPG
light: DIQMTQSPSSVSASVGDRVTITCRASQGISSWLAWYQQKPGKAPKLLIYAASSLQSGVPSRFSGSGSGTDFTLTISSLQPEDFATYYCQQGVSFPRTFGGGTKVEIKRTVAAPSVFIFPPSDEQLKSGTASVVCLLNNFYPREAKVQWKVDNALQSGNSQESVTEQDSKDSTYSLSSTLTLSKADYEKHKVYACEVTHQGLSSPVTKSFNRGEC
notes: Trispecific F3' format: CLEC12A scFv-Fc paired with NKG2D Fab-Fc; Stressed and control samples of the stability studies are the same molecule; also called AB0237
Human CLEC12A-His [1]
  Kd: 0.91 nM
  koff: 0.000708 s⁻¹
  kon: 776000 M⁻¹ s⁻¹
Human CLEC12A-His [2]
  Kd: 0.98 nM
  koff: 0.000735 s⁻¹
  kon: 750000 M⁻¹ s⁻¹
mFc-hNKG2D
  Kd: 695 nM
[3]
  Kd: 213 nM
  koff: 0.0225 s⁻¹
  kon: 105000 M⁻¹ s⁻¹
Human CLEC12A-His [4]
  Kd: 1.01 nM
  koff: 0.000871 s⁻¹
  kon: 865000 M⁻¹ s⁻¹
